Measurements reported in paper PMC2670979 (2009).

B1: GST-Miro1 WT [not stated] / TRAK2 (amino acids 476–700) [modified: 35S-methionine label; 35S-methionine label] [not stated] (parent complex)
chain 1: MKKDVRILLVGEPRVGKTSLIMSLVSEEFPEEVPPRAEEITIPADVTPERVPTHIVDYSEAEQSDEQLHQEISQANVICIVYAVNNKHSIDKVTSRWIPLINERTDKDSRLPLILVGNKSDLVEYSSMETILPIMNQYTEIETCVECSAKNLKNISELFYYAQKAVLHPTGPLYCPEEKEMKPACIKALTRIFKISDQDNDGTLNDAELNFFQRICFNTPLAPQALEDVKNVVRKHISDGVADSGLTLKGFLFLHTLFIQRGRHETTWTVLRRFGYDDDLDLTPEYLFPLLKIPPDCTTELNHHAYLFLQSTFDKHDLDRDCALSPDELKDLFKVFPYIPWGPDVNNTVCTNERGWITYQGFLSQWTLTTYLDVQRCLEYLGYLGYSILTEQESQASAVTVTRDKKIDLQKKQTQRNVFRCNVIGVKNCGKSGVLQALLGRNLMRQKKIREDHKSYYAINTVYVYGQEKYLLLHDISESEFLTEAEIICDVVCLVYDVSNPKSFEYCARIFKQHFMDSRIPCLIVAAKSDLHEVKQEYSISPTDFCRKHKMPPPQAFTCNTADAPSKDIFVKLTTMAMYPHVTQADLKSSTFWLRASFGATVFAVLGFAMYKALLKQR
chain 2: EDSDLATALHRLSLRRQNYLSEKQFFAEEWERKLQILAEQEEEVSSCEALTENLASFCTDQSETTELGSAGCLRGFMPEKLQIVKPLEGSQTLHHWQQLAQPNLGTILDPRPGVITKGFTQMPKDAVYHISDLEEDEEVGITFQVQQPLQLEQKPAPPPPVTGIFLPPMTSAGGPVSVATSNPGKCLSFTNSTFTFTTCRILHPSDITQVTPSSGFPSLSCGSSA

Variants of: B1
Assay: GST pull-down of in vitro translated 35S-labeled protein; 2 mM Ca2+; normalized to 100 at 0 mM Ca2+; parent: 110; read off a plot

| screen value | Variant |
| --- | --- |
| ~120 | chain 1 E208K, chain 1 E328K |
